The values that follow come from patent publication US20200199533A1 (KING ABDULLAH UNIVERSITY OF SCIENCE AND TECHNOLOGY, published 2020).

T1: PSGL-1, native glycoprotein from human HSPCs (KG1a, CD34^pos-BM) (human, UniProt Q14242 42-412, native glycosylation and tyrosine sulfation)
T1 construct: mature; also called P-selectin glycoprotein ligand-1
T1 sequence (looked up): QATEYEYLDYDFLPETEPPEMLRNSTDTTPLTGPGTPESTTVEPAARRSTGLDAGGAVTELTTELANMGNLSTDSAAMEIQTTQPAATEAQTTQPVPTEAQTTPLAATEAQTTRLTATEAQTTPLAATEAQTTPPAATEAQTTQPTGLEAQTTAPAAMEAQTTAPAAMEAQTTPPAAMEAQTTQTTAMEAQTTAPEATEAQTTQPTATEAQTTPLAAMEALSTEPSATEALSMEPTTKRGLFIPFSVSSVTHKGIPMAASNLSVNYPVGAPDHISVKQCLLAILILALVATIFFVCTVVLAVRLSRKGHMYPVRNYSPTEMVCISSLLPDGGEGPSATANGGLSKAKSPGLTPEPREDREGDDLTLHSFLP

B1: Recombinant P-selectin human immunoglobulin chimeric protein (Fc fusion)
chain: WTYHYSTKAYSWNISRKYCQNRYTDLVAIQNKNEIDYLNKVLPYYSSYYWIGIRKNNKTWTWVGTKKALTNEAENWADNEPNNKRNNEDCVEIYIKSPSAPGKWNDEHCLKKKHALCYTASCQDMSCSKQGECLETIGNYTCSCYPGFYGPECEYVRECGELELPQHVLMNCSHPLGNFSFNSQCSFHCTDGYQVNGPSKLECLASGIWTNKPPQCLAAQCPPLKIPERGNMTCLHSAKAFQHQSSCSFSCEEGFALVGPEVVQCTASGVWTAPAPVCKAVQCQHLEAPSEGTMDCVHPLTAFAYGSSCKFECQPGYRVRGLDMLRCIDSGHWSAPLPTCEAISCEPLESPVHGSMDCSPSLRAFQYDTNCSFRCAEGFMLRGADIVRCDNLGQWTAPAPVCQALQCQDLPVPNEARVNCSHPFGAFRYQSVCSFTCNEGLLLVGASVLQCLATGNWNSVPPECQAIPCTPLLSPQNGTMTCVQPLGSSSYKSTCQFICDEGYSLSGPERLDCTRSGRWTDSPPMCEAIKCPELFAPEQGSLDCSDTRGEFNVGSTCHFSCDNGFKLEGPNNVECTTSGRWSATPPTCKGIASLPTPGVQCPALTTPGQGTMYCRHHPGTFGFNTTCYFGCNAGFTLIGDSTLSCRPSGQWTAVTPACRAVKCSELHVNKPIAMNCSNLWGNFSYGSICSFHCLEGQLLNGSAQTACQENGHWSTTVPTCQAGPLTIQEA
B2: CD34, native glycoprotein from human HSPCs (KG1a, CD34^pos-BM, CD34^pos-UCB, CD34^pos-AML) (ligand, UniProt P28906 32-385, looked up)
chain: SLDNNGTATPELPTQGTFSNVSTNVSYQETTTPSTLGSTSLHPVSQHGNEATTNITETTVKFTSTSVITSVYGNTNSSVQSQTSVISTVFTTPANVSTPETTLKPSLSPGNVSDLSTTSTSLATSPTKPYTSSSPILSDIKAEIKCSGIREVKLTQGICLEQNKTSSCAEFKKDRGEGLARVLCGEEQADADAGAQVCSLLLAQSEVRPQCLLLVLANRTEISSKLQLMKKHQSDLKKLGILDFTEQDVASHQSYSQKTLIALVTSGALLAVLGITGYFLMNRRSWSPTGERLGEDPYYTENGGGQGYSSGPGTSPEAQGKASVNRGAQENGTGQATSRNGHSARQHVVADTEL
modifications: native glycosylation (about 120-130 kDa form); sialylated O-glycans and tyrosine sulfation are shown to matter for selectin binding
notes: mature; also called E-selL CD34

The target of assay [1] is CD34, native glycoprotein from human HSPCs (KG1a, CD34^pos-BM, CD34^pos-UCB, CD34^pos-AML) (human) (UniProt P28906). Nature of the assay: Stamper-Woodruff assay, CHO-P cells on CD34 immunoprecipitate from CD34^pos-BM.
Assay [2] has the same target. In words: Stamper-Woodruff assay, CHO-P cells on CD34 immunoprecipitate from KG1a.
Assay [3] concerns the target CD34, PNGaseF-treated (human) (UniProt P28906). Nature of the assay: SPR; CD34 captured on 4H11 from PNGaseF-treated KG1a lysate; koff-apparent similar to the control. For orientation: Surface plasmon resonance follows binding to a sensor surface in real time, without labels.
In assay [4] the target is CD44 (HCELL), native glycoprotein from human HSPCs (KG1a, CD34^pos fraction) (human) (UniProt P16070). In words: SPR, capture of CD44 from KG1a lysate on immobilized Hermes-3, before normalization.
Assay [5] has the same target. Nature of the assay: SPR, dissociation of captured CD44 from immobilized Hermes-3 during the wash after the lysate injection, s^-1 as in paragraph 58; fits the 8.6-fold ratio of paragraph 58.
Assay [6] shares this target. Nature of the assay: SPR, capture of CD44 from KG1a lysate on immobilized Hermes-3, estimated from Equation 1.
In assay [7] the target is CD34, native glycoprotein from human HSPCs (KG1a, CD34^pos-BM, CD34^pos-UCB, CD34^pos-AML) (human) (UniProt P28906). Nature of the assay: Stamper-Woodruff assay, CHO-E cells on CD34 immunoprecipitate from CD34^pos-BM.
Assay [8] has the same target. Nature of the assay: Stamper-Woodruff assay, CHO-E cells on CD34 immunoprecipitate from KG1a.
For assay [9], the target named is B2. In words: SPR; CD34 captured on 563-mAb against PSGL-1 captured on KPL-1-mAb.
In assay [10] the target is B2. Nature of the assay: SPR; CD34 captured from KG1a lysate on 563-mAb, P-Ig injected, 2 mM CaCl2, 25 C; steady-state model; mean.
The target in assay [11] is B2. Nature of the assay: SPR, steady-state fit of consecutive P-Ig injections (labels 5.6 to 1000 under the steps) in CaCl2 over CD34 captured from KG1a lysate on 563-mAb, 150 mM NaCl; the run shown; no rise in the P-Ig/EDTA step.
Assay [12] addresses T1, PSGL-1, native glycoprotein from human …. Nature of the assay: SPR; PSGL-1 captured from KG1a lysate on KPL-1-mAb; apparent rate constant; exponent printed as 10^4, read as 10^-4.
Assay [13] has the same target. In words: SPR; PSGL-1 captured from KG1a lysate on KPL-1-mAb; apparent association rate.
The target is the same in assay [14]. Nature of the assay: SPR, steady-state fit of consecutive P-Ig injections (labels 5.6 to 1000 under the steps) in CaCl2 over PSGL-1 captured from KG1a lysate on KPL-1-mAb, 150 mM NaCl; the run shown; no rise in the P-Ig/EDTA step.
For assay [15], the target named is B2. Nature of the assay: SPR; CD34 captured from KG1a lysate on 563-mAb; apparent rate constant.
Assay [16] deals with T1, PSGL-1, native glycoprotein from human …. Nature of the assay: SPR; PSGL-1 captured from KG1a lysate on KPL-1-mAb, P-Ig injected, 2 mM CaCl2, 25 C; steady-state model; mean.
The target of assay [17] is B2. In words: SPR; CD34 captured from KG1a lysate on 563-mAb; apparent association rate.
The target in assay [18] is T1, PSGL-1, native glycoprotein from human …. Nature of the assay: CD34 immunoprecipitation, Western blot for PSGL-1 (KPL-1-mAb). The text has this: FIG. 7A is an autoradiograph of Western blots of P-Ig immunoprecipitates from KG1a and CD34^pos-BM lysates probing for CD34 (QBend-10 and EP373Y mAb) or PSGL-1 using KPL-1-mAb. Note that CD34 immunoprecipitates were free from any PSGL-1 contamination. (n=3 independent experiment). FIG. 7B is an autoradiograph of Western blots of CD34 and PSGL-1 immunoprecipitates probed with P-Ig (n=3). FIG. 7C is an autoradiograph of Western blots of E-Ig immunoprecipitates of E-sels from KG1 lysate that were eluted with 30 mM EDTA. The eluate was then immunoprecipitated with CD34-mAbs (4H11 and 581) prior to Western blot analysis with CD34, E-Ig, and P-Ig (n=2 independent experiments). FIG. 7D is a bar graph of Bound cells/field for adherent CHO-P cells. CD34 immunoprecipitates were prepared from CD34^pos-BM and KG1a lysates and spotted on glass slides to test for CHO-P binding using a Stamper-Woodruff assay. n=2 independent experiments. FIG. 7E is a bar graph of # of rolling cells per field showing Adhesion bar graph representing results obtained for the blot-rolling assay using CHO-P cell rolling at 0.25 dyne/cm² (rolling cells/field) over Western blots of immunoprecipitated CD34, CD44, CD43, or PSGL-1 from KG1a cell lysates. EDTA was used as a buffer (gray bars) or CHO-M cells (white bars). […] The resulting proteins were analyzed by Western blot for P-Ig binding.
(A western blot detects proteins with antibodies after separation by electrophoresis.)

Usually koff stands for the rate constant with which the complex falls apart. As usually defined, the Kd is the constant that tells how readily two partners part at equilibrium. A lower Kd goes with higher affinity. As a reminder, the kon is a measure of how fast the partners come together.

CD44 (HCELL), native glycoprotein from human HSPCs (KG1a, CD34^pos fraction) (human), sequence (P16070 21-742): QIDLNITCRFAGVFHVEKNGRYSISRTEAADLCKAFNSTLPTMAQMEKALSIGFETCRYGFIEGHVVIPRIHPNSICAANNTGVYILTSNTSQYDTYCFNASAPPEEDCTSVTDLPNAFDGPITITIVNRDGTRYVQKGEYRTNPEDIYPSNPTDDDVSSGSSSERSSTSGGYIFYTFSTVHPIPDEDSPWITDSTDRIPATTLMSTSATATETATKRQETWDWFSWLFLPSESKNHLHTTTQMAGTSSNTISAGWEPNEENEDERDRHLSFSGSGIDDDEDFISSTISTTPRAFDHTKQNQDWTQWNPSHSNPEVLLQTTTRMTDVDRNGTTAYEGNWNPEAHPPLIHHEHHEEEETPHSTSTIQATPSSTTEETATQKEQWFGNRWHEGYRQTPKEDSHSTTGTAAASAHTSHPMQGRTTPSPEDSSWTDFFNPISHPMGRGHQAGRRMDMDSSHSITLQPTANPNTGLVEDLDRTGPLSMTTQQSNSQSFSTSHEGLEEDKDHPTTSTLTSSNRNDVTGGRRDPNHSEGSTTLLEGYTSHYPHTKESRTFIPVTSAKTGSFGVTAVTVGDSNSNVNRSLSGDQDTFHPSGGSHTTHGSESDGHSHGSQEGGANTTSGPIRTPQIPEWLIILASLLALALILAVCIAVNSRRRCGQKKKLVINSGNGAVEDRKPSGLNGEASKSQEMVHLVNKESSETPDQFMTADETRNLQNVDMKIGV

Turning to “P-selectin expressed on CHO-P cells (receptor)”, the bound cells per field (bound cells per field) in [1] worked out at 8; in assay [2], 41.

Turning to “recombinant E-selectin human immunoglobulin chimeric protein (Fc fusion)”, the fold reduction in RUmax against the control lysate in [3] was found to be 1.4 fold.

With CD44-mAb Hermes-3 (antibody), in assay [4], the RUmax at the end of the lysate injection came out at 559 RU. Also, the koff in assay [5] was 5e-05 s⁻¹. The ligand-capturing efficiency in [6] is 20.2%.

In the case of “E-selectin expressed on CHO-E cells (receptor)”, the bound cells (bound cells/field) in [7] stood at 14; in [8], 26.

B1: the “fold weaker KD than P-Ig to PSGL-1” value in assay [9] was around 1.7 fold. Besides, the Kd in assay [10] was 621 nM; in assay [11], around 622 nM; in assay [14] it was around 373 nM; in assay [16], 372 nM. For the same molecule, the koff was 0.0002 s⁻¹ in assay [12] and 0.0003 s⁻¹ in assay [15]. In addition, the on-rate (kon) in [13] was 474 M⁻¹ s⁻¹; in assay [17] it was 452 M⁻¹ s⁻¹.

For the molecule B2, in [18], the binding result was “no binding”.
